From US6893843B2, “Nucleic acids” (priority 1990, dated 2005)
Read-outs that look alike come from different tables or passages of the source. No end group written: not given here.

Legend:
human leukocyte elastase = target: T1, human leukocyte elastase (Homo sapiens, UniProt P08246); experiment: Inhibition of human leukocyte elastase (AAPVpNA substrate; Ki by Green and Work); format: biochemical; conditions: for Ki: method of Green and Work
T1 construct: purchased Elastin Products Corporation, Pacific, Mo., USA
T1 sequence (P08246 30-267): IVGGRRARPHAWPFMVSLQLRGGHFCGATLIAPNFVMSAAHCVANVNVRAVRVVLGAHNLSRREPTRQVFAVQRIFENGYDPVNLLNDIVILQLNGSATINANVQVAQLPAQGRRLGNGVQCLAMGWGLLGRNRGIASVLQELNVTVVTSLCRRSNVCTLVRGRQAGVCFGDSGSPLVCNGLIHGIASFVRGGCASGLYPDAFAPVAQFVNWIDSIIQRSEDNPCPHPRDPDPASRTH
Experimental: The potency of polypeptides of the present invention to act as an elastase inhibitor was determined by the ability of a compound of the invention to inhibit the action of human leukocyte elastase (HLE) on a low molecular weight peptide substrate. The potency of an inhibitor was evaluated by obtaining a kinetic determination of the dissociation constant, Ki, of the complex formed from the interaction of th inhibitor with HLE. The substrate used was the anilide methoxysuccinyl-alanyl-alanyl-prolyl-valine-p-nitroanilide as described by K. Nakajima et al. in the J. Biol. Chem., 254: 4027-4032 (1979) and by T. Teshima et al. in J. Biol Chem., 257: No 9, 5085-5091 (1982). The HLE enzyme used in these studies may be obtained from Elastin Products of St. Louis, Mo. or can be purified according to B. R. Viscarello et al. in Preparative Biochemistry, Vol. 13, pages 57-67, (1983).
The activity of human leukocyte elastase (EC 3.4.21.37) was determined according to the method of Nakajima et al (7). Inhibition of HLE was determined by the use of the synthetic peptide methoxy-succinyl-alanyl-alanyl-prolyl-valyl-p-nitro anilide (AAPVpNA, Sigma).
Sample (100 μl) and 100 μl HLE (200 ng/ml; Elastin Products Corporation, Pacific, Mo., USA) in assay buffer (0.1M, HEPES, 0.5M NaCl, 10% DMSO, pH 7.5) were incubated for 30 minutes at room temperature. Substrate (800 μl 0.5 mM) in assay buffer was then added.
Changes in absorbance at 405 nm were followed up to 1 hour and the %-inhibition was calculated from the remaining activity and controls. The dissociation constant (Ki) was determined according to the method of Green and Work (8) in the same system, using 2 mM substrate and (1 μg/ml) HLE (final concentrations).

[1] = target: porcine pancreatic elastase (Sus scrofa, UniProt P00772); experiment: Inhibition of porcine pancreatic elastase (AAPV-AFC fluorogenic substrate); format: biochemical
Experimental: The activity of porcine pancreatic elastase (E.C. 3.4.21.36) was determined using the flourogenic substrate methoxy-succinyl-alanyl-alanyl-prolyl-valyl-trifluoromethylcoumarine (AAPV-AFC, Bachem, Bubendorf, Switzerland).
Elastase (100 μl) and inhibitor (100 μl) were pre-incubated for 30 minutes. A solution of substrate (1.8 ml of a 0.1 mM solution) was then added. Flourescence, Ex 400 Em 505, was followed and the %-inhbition was calculated from the initial activity of samples and controls. The dissociation constant (Ki) was determined according to the method of Green and Work (8).

human cathepsin G = target: T2, human cathepsin G (Homo sapiens, UniProt P08311); experiment: Inhibition of cathepsin G (AAPFpNA substrate); format: biochemical; conditions: substrate 0.5 mM AAPFpNA; inhibitor up to 1 μg/ml (threefold molar); n.i. = no inhibition
T2 sequence (P08311 21-255): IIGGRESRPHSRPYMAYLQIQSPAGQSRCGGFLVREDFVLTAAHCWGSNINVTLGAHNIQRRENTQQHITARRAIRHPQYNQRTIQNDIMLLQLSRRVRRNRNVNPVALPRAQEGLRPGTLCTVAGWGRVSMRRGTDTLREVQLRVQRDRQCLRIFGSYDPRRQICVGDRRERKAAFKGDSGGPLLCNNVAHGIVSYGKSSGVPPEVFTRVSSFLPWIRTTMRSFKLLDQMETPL
Experimental: (§1) The activities of cathepsin G and Alpha-chymotrypsin were determined according to the method of Nakajima et al (9) using an analogue to HLE—succinyl-alanyl-alanyl-prolyl-phenylalanyl-p-nitroanilide (AAPFpNA, Sigma). For inhibition experiments, the highest concentration of the inhibitor was 1 μg/ml, representing a threefold molar concentration as compared to cathepsin G and Alpha-chymotrypsin.

Alpha-chymotrypsin = Alpha-chymotrypsin (Bos taurus, UniProt P00766); experiment: Inhibition of Alpha-chymotrypsin (AAPFpNA substrate); format: biochemical
Experimental: as §1

trypsin = experiment: Inhibition of trypsin (TGPLpNA substrate); format: biochemical
Experimental: (§2) 100 μl inhibitor (1 μg/ml) and 100 μl trypsin (1 μg/ml) or plasmin (1 μg/ml) as appropriate were incubated for 30 minutes before adding the substrate, 0.1 mM tosyl-glycyl-prolyl-lysin-pNA (Boehringer Mannheim, FRG) in 0.05M HEPES, 0.12M NaCl, pH7.5.

plasmin = plasmin (Homo sapiens, UniProt P00747); experiment: Inhibition of plasmin (TGPLpNA substrate); format: biochemical
Experimental: as §2

Proteinase 3 = target: T3, Proteinase 3 (Homo sapiens, UniProt P24158); experiment: Inhibition of proteinase 3 (elastin-FITC hydrolysis); format: biochemical; conditions: 37° C., 4 hours, pH 8.5, read-out: IC50 against proteinase 3
T3 construct: Proteinase 3 was purified from human polymorphonuclear leukocytes using the method of Ludemann; from tissue; host or cells: human polymorphonuclear leukocytes
T3 sequence (P24158 28-256): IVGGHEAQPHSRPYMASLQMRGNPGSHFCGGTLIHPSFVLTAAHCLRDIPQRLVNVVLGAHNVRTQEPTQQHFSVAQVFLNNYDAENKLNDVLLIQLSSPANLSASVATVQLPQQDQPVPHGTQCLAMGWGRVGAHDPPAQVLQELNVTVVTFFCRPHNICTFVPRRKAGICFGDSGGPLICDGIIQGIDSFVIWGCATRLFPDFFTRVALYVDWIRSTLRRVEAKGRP
Experimental: Proteinase 3 was purified from human polymorphonuclear leukocytes using the method of Ludemann reported in J Exp Med 171, 357-362, 1990. The absence of human leukocyte elastase and cathespin G was confirmed by the lack of activity of the proteinase 3 preparation with the substrates methoxy-succinyl-ala-ala-pro-val-p-nitroanilide (AAPVpNA), and succinyl-ala-ala-phe-p-nitroanilide respectively according to the method of Nakajima (7).
The elastinolytic activity was determined by hydrolysis of bovine ligamentum nuchae elastin-FITC (Elastin Products Corporation, USA).
The proteinase 3 preparation (1 μl) was preincubated at 37° C. for 30 minutes with the elastase inhibitor of formula I (0-1 μg) in carbonate buffer (50 μl, 0.1M), NaN3 (0.02%), Brij 35 (0.01%), pH8,5. Elastin-FITC (1 mg) in carbonate buffer (100 μl, 0.1M), NaN3 (0.02%), Brij 35 (0.01%), pH8.5. The mixture was incubated at 37° C. with gentle agitation for 4 hours, and then centrifuged at 6000×g. The supernatants were diluted 1:20 and the fluorescence of the solubilised elastin-FITC was determined using a Perkin Elmer LS 50 microtiterplate reader at Ex489 nm, Em 513 nm. Fluorescence was corrected by enzyme free controls and inhibition expressed in % of inhibitor free controls.

Isoelectric focussing = format: physicochemical; conditions: silver stain and enzymatic detection in gel slices
Experimental: Isoelectric focussing was performed by using Servalyt Precoates pH 3-10 and Test-Mix 9 (Serva). Prefocussing was for 30 minutes at 3 watts, and silver stain (Sigma) or Comassie blue R stain was used according to Serva instructions. In parallel, the precoates were sliced and eluted to localise inhibitory active peptides. Approximately 1 mm slices were eluted with 100 μl acetonitrile. The eluates were allowed to dry and were resolved in 100 μl of buffer (0.1M HEPES, 0.5M NaCl, 1% BSA, pH 7.5) containing 20 ng HLE. After 30 minutes incubation the remaining HLE activity was determined.

Acid stability = format: physicochemical
[2] = at least threefold excess of the inhibitor
[3] = substrate 0.1 mM TGPLpNA, inhibitor 1 μg/ml, n.i. = no inhibition

Chain of plasmin (P00747 581-810 limits assumed, species assumed): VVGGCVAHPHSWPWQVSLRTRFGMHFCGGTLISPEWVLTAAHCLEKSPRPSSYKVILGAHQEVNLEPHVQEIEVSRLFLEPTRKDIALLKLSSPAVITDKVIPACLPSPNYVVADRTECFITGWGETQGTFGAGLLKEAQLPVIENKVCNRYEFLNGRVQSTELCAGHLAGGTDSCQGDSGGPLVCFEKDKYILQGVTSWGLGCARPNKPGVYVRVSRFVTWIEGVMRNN
Chain of plasmin (P00747 97-580 partner limits assumed, species assumed): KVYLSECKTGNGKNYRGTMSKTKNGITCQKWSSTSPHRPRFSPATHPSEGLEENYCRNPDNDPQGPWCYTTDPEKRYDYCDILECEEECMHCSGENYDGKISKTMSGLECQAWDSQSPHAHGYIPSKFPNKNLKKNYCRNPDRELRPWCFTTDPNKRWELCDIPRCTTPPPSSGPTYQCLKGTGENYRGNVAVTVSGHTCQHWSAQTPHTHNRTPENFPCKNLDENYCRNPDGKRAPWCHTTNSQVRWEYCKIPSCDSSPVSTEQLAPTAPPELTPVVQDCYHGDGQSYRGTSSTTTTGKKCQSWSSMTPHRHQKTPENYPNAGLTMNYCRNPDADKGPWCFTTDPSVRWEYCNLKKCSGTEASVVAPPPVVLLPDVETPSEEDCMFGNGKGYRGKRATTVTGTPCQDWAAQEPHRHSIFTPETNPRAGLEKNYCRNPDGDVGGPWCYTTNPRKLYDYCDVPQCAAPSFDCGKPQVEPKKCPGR
Chain of porcine pancreatic elastase (P00772 27-266): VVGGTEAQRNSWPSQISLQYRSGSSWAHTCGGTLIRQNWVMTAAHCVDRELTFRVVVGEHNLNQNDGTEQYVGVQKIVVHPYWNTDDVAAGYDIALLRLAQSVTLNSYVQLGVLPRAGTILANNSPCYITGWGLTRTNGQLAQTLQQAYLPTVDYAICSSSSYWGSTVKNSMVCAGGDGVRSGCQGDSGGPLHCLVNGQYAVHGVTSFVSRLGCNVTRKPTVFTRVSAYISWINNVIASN

## AQEPVKGPVSTKPGSCPIILIRCAMLNPPNRCLKDTDCPGIKKCCEGSCGMACFVPQ (cysteine pairing not given here) [prominent inhibitor]
Human leukocyte elastase
  inhibition of HLE (in words): found to inhibit
Human leukocyte elastase; Poly LC-HPLC peak compared with inhibitor from human skin, read-out: Ki, titrated against HLE
  Ki: 0.33 nM
Human leukocyte elastase; substrate 2 mM AAPVpNA, 1 μg/ml HLE, read-out: DISSOCIATION CONSTANT (Ki), human leukocyte elastase
  Ki: 0.3 nM
[1]
  inhibition of porcine pancreatic elastase (in words): found to inhibit
[1]; substrate 0.1 mM AAPV-AFC, method of Green and Work, read-out: DISSOCIATION CONSTANT (Ki), porcine pancreatic elastase
  Ki: 1 nM
Human cathepsin G
  DISSOCIATION CONSTANT (Ki), human cathepsin G: n.i.
Alpha-chymotrypsin; [2]
  inhibition of Alpha-chymotrypsin (in words): neither Alpha- chymotrypsin, nor trypsin and plasmin were significantly inhibited
Alpha-chymotrypsin; substrate 0.5 mM AAPFpNA, inhibitor up to 1 μg/ml (threefold molar), n.i. = no inhibition
  DISSOCIATION CONSTANT (Ki), Alpha-chymotrypsin: n.i.
trypsin; [2]
  inhibition of trypsin (in words): neither Alpha- chymotrypsin, nor trypsin and plasmin were significantly inhibited
trypsin; [3]
  DISSOCIATION CONSTANT (Ki), trypsin: n.i.
plasmin; [2]
  inhibition of plasmin (in words): neither Alpha- chymotrypsin, nor trypsin and plasmin were significantly inhibited
plasmin; [3]
  DISSOCIATION CONSTANT (Ki), plasmin: n.i.
Proteinase 3
  IC50: 9.5 nM
Isoelectric focussing
  isoelectric point: 9.7 pH
Acid stability
  acid stability: acid stable
